According to the supplement of paper PMC5998384:

Key:
HeLa Kyoto [1] = test: solubility change mitosis vs G1/S (difference of NP-40 vs SDS log2 ratios) (log2 ratio difference); higher = more soluble in mitosis
HeLa Kyoto [2] = test: solubility in G1/S (NP-40 vs SDS abundance) (log2 ratio); higher = more soluble; details: cell cycle stage: G1/S
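Wherever solubility change mitosis vs G1/S (difference of NP-40 vs SDS log2 ratios) is given: synchronized HeLa Kyoto cells (double thymidine block for G1/S, nocodazole release for mitosis), protein amounts in NP-40 versus SDS lysates quantified by mass spectrometry, three biological replicates.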
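Wherever solubility in G1/S (NP-40 vs SDS abundance) is given: HeLa Kyoto cells arrested at G1/S by double thymidine block, proteins quantified by TMT10plex mass spectrometry in mild NP-40 versus SDS extracts, three biological replicates.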

Sequence | solubility change mitosis (log2) (HeLa Kyoto [1]) | solubility in G1/S (log2) (HeLa Kyoto [2])
MENCSAASTFLTDSLELELGTEWCKPPYFSCAVDNRGGGKHFSGESYLCSGALKRLILNLDPLPTNFEEDTLEIFGIQWVTETALVNSSRELFHLFRQQLYNLETLLQSSCDFGKVSTLHCKADNIRQQCVLFLHYVKVFIFRYLKVQNAESHVPVHPYEALEAQLPSVLIDELHGLLLYIGHLSELPSVNIGAFVNQNQIKLFPPSWHLLHLHLDIHWLVLEILYMLGEKLKQVVYGHQFMNLASDNLTNISLFEEHCETLLCDLISLSLNRYDKVRSSESLMSDQCPCLCIKELWVLLIHLLDHRSKWFVSESFWNWLNKLLKTLLEKSSDRRRSSMPVIQSRDPLGFSWWIITHVASFYKFDRHGVPDEMRKVESNWNFVEELLKKSISVQGVILEEQLRMYLHCCLTLCDFWEPNIAIVTILWEYYSKNLNSSFSISWLPFKGLANTMKSPLSMLEMVKTCCCDKQDQELYKSSSSYTIFLCILAKVVKKAMKSNGPHPWKQVKGRIYSKFHQKRMEELTEVGLQNFFSLFLLLAAVAEVEDVASHVLDLLNFLKPAFVTSQRALIWKGHMAFLLMYAQKNLDIGVLAEKFSCAFREKAKEFLVSKNEEMVQRQTIWTLLSIYIDGVQEVFETSYCLYPSHEKLLNDGFSMLLRACRESELRTVLSFLQAVLARIRSMHQQLCQELQRDNVDLFVQSSLSAKERHLAAVASALWRHFFSFLKSQRMSQVVPFSQLADAAADFTLLAMDMPSTAPSDFQPQPVISIIQLFGWDDIICPQVVARYLSHVLQNSTLCEALSHSGYVSFQALTVRSWIRCVLQMYIKNLSGPDDLLIDKNLEEAVEKEYMKQLVKLTRLLFNLSEVKSIFSKAQVEYLSISEDPKKALVRFFEAVGVTYGNVQTLSDKSAMVTKSLEYLGEVLKYIKPYLGKKVFSAGLQLTYGMMGILVKSWAQIFATSKAQKLLFRIIDCLLLPHAVLQQEKELPAPMLSAIQKSLPLYLQGMCIVCCQSQNPNAYLNQLLGNVIEQYIGRFLPASPYVSDLGQHPVLLALRNTATIPPISSLKKCIVQVIRKSYLEYKGSSPPPRLASILAFILQLFKETNTDIYEVELLLPGILKCLVLVSEPQVKRLATENLQYMVKACQVGSEEEPSSQLTSVFRQFIQDYGMRYYYQVYSILETVATLDQQVVIHLISTLTQSLKDSEQKWGLGRNIAQREAYSKLLSHLGQMGQDEMQRLENDNT [MMS22L] | -0.109 | -0.523
MEPKVAELKQKIEDTLCPFGFEVYPFQVAWYNELLPPAFHLPLPGPTLAFLVLSTPAMFDRALKPFLQSCHLRMLTDPVDQCVAYHLGRVRESLPELQIEIIADYEVHPNRRPKILAQTAAHVAGAAYYYQRQDVEADPWGNQRISGVCIHPRFGGWFAIRGVVLLPGIEVPDLPPRKPHDCVPTRADRIALLEGFNFHWRDWTYRDAVTPQERYSEEQKAYFSTPPAQRLALLGLAQPSEKPSSPSPDLPFTTPAPKKPGNPSRARSWLSPRVSPPASPGP [MMACHC] | 0.0886 | 0.0435
METAPKPGKDVPPKKDKLQTKRKKPRRYWEEETVPTTAGASPGPPRNKKNRELRPQRPKNAYILKKSRISKKPQVPKKPREWKNPESQRGLSGTQDPFPGPAPVPVEVVQKFCRIDKSRKLPHSKAKTRSRLEVAEAEEEETSIKAARSELLLAEEPGFLEGEDGEDTAKICQADIVEAVDIASAAKHFDLNLRQFGPYRLNYSRTGRHLAFGGRRGHVAALDWVTKKLMCEINVMEAVRDIRFLHSEALLAVAQNRWLHIYDNQGIELHCIRRCDRVTRLEFLPFHFLLATASETGFLTYLDVSVGKIVAALNARAGRLDVMSQNPYNAVIHLGHSNGTVSLWSPAMKEPLAKILCHRGGVRAVAVDSTGTYMATSGLDHQLKIFDLRGTYQPLSTRTLPHGAGHLAFSQRGLLVAGMGDVVNIWAGQGKASPPSLEQPYLTHRLSGPVHGLQFCPFEDVLGVGHTGGITSMLVPGAGEPNFDGLESNPYRSRKQRQEWEVKALLEKVPAELICLDPRALAEVDVISLEQGKKEQIERLGYDPQAKAPFQPKPKQKGRSSTASLVKRKRKVMDEEHRDKVRQSLQQQHHKEAKAKPTGARPSALDRFVR [WDR46] | 0.592 | -1.25
MFHSPRRLCSALLQRDAPGLRRLPAPGLRRPLSPPAAVPRPASPRLLAAASAASGAARSCSRTVCSMGTGTSRLYSALAKTLNSSAASQHPEYLVSPDPEHLEPIDPKELLEECRAVLHTRPPRFQRDFVDLRTDCPSTHPPIRVMQWNILAQALGEGKDNFVQCPVEALKWEERKCLILEEILAYQPDILCLQEVDHYFDTFQPLLSRLGYQGTFFPKPWSPCLDVEHNNGPDGCALFFLQNRFKLVNSANIRLTAMTLKTNQVAIAQTLECKESGRQFCIAVTHLKARTGWERFRSAQGCDLLQNLQNITQGAKIPLIVCGDFNAEPTEEVYKHFASSSLNLNSAYKLLSADGQSEPPYTTWKIRTSGECRHTLDYIWYSKHALNVRSALDLLTEEQIGPNRLPSFNYPSDHLSLVCDFSFTEESDGLS [NOCT] | -0.0975 | 0.0632
MFLQYYLNEQGDRVYTLKKFDPMGQQTCSAHPARFSPDDKYSRHRITIKKRFKVLMTQQPRPVL [NOP10] | 0.778 | -1.06
MFPVFPCTLLAPPFPVLGLDSRGVGGLMNSFPPPQGHAQNPLQVGAELQSRFFASQGCAQSPFQAAPAPPPTPQAPAAEPLQVDLLPVLAAAQESAAAAAAAAAAAAAVAAAPPAPAAASTVDTAALKQPPAPPPPPPPVSAPAAEAAPPASAATIAAAAATAVVAPTSTVAVAPVASALEKKTKSKGPYICALCAKEFKNGYNLRRHEAIHTGAKAGRVPSGAMKMPTMVPLSLLSVPQLSGAGGGGGEAGAGGGAAAVAAGGVVTTTASGKRIRKNHACEMCGKAFRDVYHLNRHKLSHSDEKPYQCPVCQQRFKRKDRMSYHVRSHDGAVHKPYNCSHCGKSFSRPDHLNSHVRQVHSTERPFKCEKCEAAFATKDRLRAHTVRHEEKVPCHVCGKMLSSAYISDHMKVHSQGPHHVCELCNKGTGEVCPMAAAAAAAAAAAAAAVAAPPTAVGSLSGAEGVPVSSQPLPSQPW [MAZ] | 0.19 | 0.0657
MFQASMRSPNMEPFKQQKVEDFYDIGEELGSGQFAIVKKCREKSTGLEYAAKFIKKRQSRASRRGVSREEIEREVSILRQVLHHNVITLHDVYENRTDVVLILELVSGGELFDFLAQKESLSEEEATSFIKQILDGVNYLHTKKIAHFDLKPENIMLLDKNIPIPHIKLIDFGLAHEIEDGVEFKNIFGTPEFVAPEIVNYEPLGLEADMWSIGVITYILLSGASPFLGDTKQETLANITAVSYDFDEEFFSQTSELAKDFIRKLLVKETRKRLTIQEALRHPWITPVDNQQAMVRRESVVNLENFRKQYVRRRWKLSFSIVSLCNHLTRSLMKKVHLRPDEDLRNCESDTEEDIARRKALHPRRRSSTS [DAPK2] | -0.115 | 0.203
MGAAAAEADRTLFVGNLETKVTEELLFELFHQAGPVIKVKIPKDKDGKPKQFAFVNFKHEVSVPYAMNLLNGIKLYGRPIKIQFRSGSSHAPQDVSLSYPQHHVGNSSPTSTSPSRYERTMDNMTSSAQIIQRSFSSPENFQRQAVMNSALRQMSYGGKFGSSPLDQSGFSPSVQSHSHSFNQSSSSQWRQGTPSSQRKVRMNSYPYLADRHYSREQRYTDHGSDHHYRGKRDDFFYEDRNHDDWSHDYDNRRDSSRDGKWRSSRH [RBM7] | 0.189 | 0.568
MGLEDEQKMLTESGDPEEEEEEEEELVDPLTTVREQCEQLEKCVKARERLELCDERVSSRSHTEEDCTEELFDFLHARDHCVAHKLFNNLK [UQCRH] | 0.641 | -0.528
MGLYGQACPSVTSLRMTSELESSLTSMDWLPQLTMRAAIQKSDATQNAHGTGISKKNALLDPNTTLDQEEVQQHKDGKPPYSYASLITFAINSSPKKKMTLSEIYQWICDNFPYYREAGSGWKNSIRHNLSLNKCFLKVPRSKDDPGKGSYWAIDTNPKEDVLPTRPKKRARSVERASTPYSIDSDSLGMECIISGSASPTLAINTVTNKVTLYNTDQDGSDSPRSSLNNSLSDQSLASVNLNSVGSVHSYTPVTSHPESVSQSLTPQQQPQYNLPERDKQLLFSEYNFEDLSASFRSLYKSVFEQSLSQQGLMNIPSESSQQSHTSCTYQHSPSSTVSTHPHSNQSSLSNSHGSGLNTTGSNSVAQVSLSHPQMHTQPSPHPPHRPHGLPQHPQRSPHPAPHPQQHSQLQSPHPQHPSPHQHIQHHPNHQHQTLTHQAPPPPQQVSCNSGVSNDWYATLDMLKESCRIASSVNWSDVDLSQFQGLMESMRQADLKNWSLDQVQFADLCSSLNQFFTQTGLIHSQSNVQQNVCHGAMHPTKPSQHIGTGNLYIDSRQNLPPSVMPPPGYPHIPQALSTPGTTMAGHHRAMNQQHMMPSQAFQMRRSLPPDDIQDDFDWDSIV [FOXJ3] | 0.0825 | 0.664
MGMACLTMTEMEGTSTSSIYQNGDISGNANSMKQIDPVLQVYLYHSLGKSEADYLTFPSGEYVAEEICIAASKACGITPVYHNMFALMSETERIWYPPNHVFHIDESTRHNVLYRIRFYFPRWYCSGSNRAYRHGISRGAEAPLLDDFVMSYLFAQWRHDFVHGWIKVPVTHETQEECLGMAVLDMMRIAKENDQTPLAIYNSISYKTFLPKCIRAKIQDYHILTRKRIRYRFRRFIQQFSQCKATARNLKLKYLINLETLQSAFYTEKFEVKEPGSGPSGEEIFATIIITGNGGIQWSRGKHKESETLTEQDLQLYCDFPNIIDVSIKQANQEGSNESRVVTIHKQDGKNLEIELSSLREALSFVSLIDGYYRLTADAHHYLCKEVAPPAVLENIQSNCHGPISMDFAISKLKKAGNQTGLYVLRCSPKDFNKYFLTFAVERENVIEYKHCLITKNENEEYNLSGTKKNFSSLKDLLNCYQMETVRSDNIIFQFTKCCPPKPKDKSNLLVFRTNGVSDVPTSPTLQRPTHMNQMVFHKIRNEDLIFNESLGQGTFTKIFKGVRREVGDYGQLHETEVLLKVLDKAHRNYSESFFEAASMMSKLSHKHLVLNYGVCVCGDENILVQEFVKFGSLDTYLKKNKNCINILWKLEVAKQLAWAMHFLEENTLIHGNVCAKNILLIREEDRKTGNPPFIKLSDPGISITVLPKDILQERIPWVPPECIENPKNLNLATDKWSFGTTLWEICSGGDKPLSALDSQRKLQFYEDRHQLPAPKWAELANLINNCMDYEPDFRPSFRAIIRDLNSLFTPDYELLTENDMLPNMRIGALGFSGAFEDRDPTQFEERHLKFLQQLGKGNFGSVEMCRYDPLQDNTGEVVAVKKLQHSTEEHLRDFEREIEILKSLQHDNIVKYKGVCYSAGRRNLKLIMEYLPYGSLRDYLQKHKERIDHIKLLQYTSQICKGMEYLGTKRYIHRDLATRNILVENENRVKIGDFGLTKVLPQDKEYYKVKEPGESPIFWYAPESLTESKFSVASDVWSFGVVLYELFTYIEKSKSPPAEFMRMIGNDKQGQMIVFHLIELLKNNGRLPRPDGCPDEIYMIMTECWNNNVNQRPSFRDLALRVDQIRDNMAG [JAK2] | 0.0233 | -0.224
